The values that follow come from PMC3565030.

The target in this experiment is T1, Eco1 phosphopeptide “94-98-99” (phosphates at Thr94, Ser98 and Ser99), FITC-conjugated (budding yeast).
T1 chain: GTITPLNSSPLKK
In words: fluorescence polarisation.

B1: Cdc4–Skp1 complex (His6-Cdc4-LP6DelA GST-Skp1), P07834 1-779; P52286 1-194 (complex)
chain 1: GTLIKDNLKRDLITSLPFEISLKIFNYLQFEDIINSLGVSQNWNKIIRKSTSLWKKLLISENFVSPKGFNSLNLKLSQKYPKLSQQDRLRLSFLENIFILKNWYNPKFVPQRTTLRGHMTSVITCLQFEDNYVITGADDKMIRVYDSINKKFLLQLSGHDGGVWALKYAHGGILVSGSTDRTVRVWDIKKGCCTHVFEGHNSTVRCLDIVEYKNIKYIVTGSRDNTLHVWKLPKESSVPDHGEEHDYPLVFHTPEENPYFVGVLRGHMASVRTVSGHGNIVVSGSYDNTLIVWDVAQMKCLYILSGHTDRIYSTIYDHERKRCISASMDTTIRIWDLENGELMYTLQGHTALVGLLRLSDKFLVSAAADGSIRGWDANDYSRKFSYHHTNLSAITTFYVSDNILVSGSENQFNIYNLRSGKLVHANILKDADQIWSVNFKGKTLVAAVEKDGQSFLEILDFS
chain 2: MVTSNVVLVSGEGERFTVDKKIAERSLLLKNYLNDMGDDDDEDDDEIVMPVPNVRSSVLQKVIEWAEHHRDSNFPDEDDDDSRKSAPVDSWDREFLKVDQEMLYEIILAANYLNIKPLLDAGCKVVAEMIRGRSPEEIRRTFNIVNDFTPEEEAAIRRENEWAEDR
modifications: not checked
The molecule B1 gave a Kd of 10.3 µM. This counts as double-digit micromolar.

In general, Kd refers to the constant that tells how readily two partners part at equilibrium. Low values mean tighter binding, high ones weaker binding.
